Assay [1] has as its target human P-cadherin K14E mutant ectodomain (EC1-5) (human). As to the kind of experiment: single-molecule AFM force spectroscopy; biotinylated Pcad EC1-5 held by streptavidin on PEG tethers on both the cantilever and the glass substrate; no CQY684 (-CQY); tip retracted at 1 µm/s; Tris buffer pH 7.5, 10 mM Tris-HCl, 100 mM NaCl, 10 mM KCl, 2.5 mM CaCl2; peak forces from Gaussian fits of unbinding force histograms.

Assay [2] shares this target. As to the kind of experiment: single-molecule AFM force spectroscopy; as the -CQY experiment but with 40 nM CQY684 Fab in the buffer (+CQY); Pcad EC1-5 on cantilever and substrate; 1 µm/s; Tris buffer pH 7.5 with 2.5 mM CaCl2.
Assay [3] addresses human P-cadherin W2A mutant ectodomain (EC1-5) (human). As to the kind of experiment: single-molecule AFM force spectroscopy; biotinylated Pcad EC1-5 held by streptavidin on PEG tethers on both the cantilever and the glass substrate; no CQY684 (-CQY); tip retracted at 1 µm/s; Tris buffer pH 7.5, 10 mM Tris-HCl, 100 mM NaCl, 10 mM KCl, 2.5 mM CaCl2; peak forces from Gaussian fits of unbinding force histograms.

The target is the same in assay [4]. The experiment in a line: single-molecule AFM force spectroscopy; as the -CQY experiment but with 40 nM CQY684 Fab in the buffer (+CQY); Pcad EC1-5 on cantilever and substrate; 1 µm/s; Tris buffer pH 7.5 with 2.5 mM CaCl2.

“human P-cadherin K14E mutant ectodomain (EC1-5) (domain or fragment)” displayed a peak unbinding force in assay [1] of 33.1 pN. Besides, the peak unbinding force (with 40 nM CQY684) in assay [2] was 31 pN.
“human P-cadherin W2A mutant ectodomain (EC1-5) (domain or fragment)” registered a peak unbinding force in assay [3] of 24.5 pN. In assay [4], this substance gave a peak unbinding force, first Gaussian (with 40 nM CQY684) of 35.1 pN and a peak unbinding force, second Gaussian (with 40 nM CQY684) of 55.8 pN.

These data come from PMC11779849.
